Assay results reported in publication PMC11468790, “New Bacterial Aryl Sulfotransferases: Effective Tools for Sulfation of Polyphenols” (Journal of Agricultural and Food Chemistry, 2024).

How the values were obtained:
[1] = test system: T1, O=[N+]([O-])c1ccc(OS(=O)(=O)O)cc1; experiment: purified protein; type: biochemical, Desulfosporosinus sp. HMP52; conditions: varied donor pNPS 0.02-50 mM, acceptor phenol (5-200 mM), 30 °C, activity buffer Tris-glycine pH 8.9
T1 construct: C-terminal His6 tag, pET-26b(+) NcoI/SacI, E. coli BL21(DE3)pLysS, IMAC, ca. 70 kDa

[2] = test system: O=[N+]([O-])c1ccc(OS(=O)(=O)O)cc1; experiment: purified protein; conditions: varied donor pNPS 0.02-50 mM, acceptor phenol (5-200 mM), 30 °C, activity buffer Tris-glycine pH 8.9

DsAST (Desulfosporosinus sp. HMP52)
Km [1]: 570 ± 20 µM | kcat [1]: 32.5 ± 0.4 s⁻¹ | kcat/Km [1]: 57000 M⁻¹ s⁻¹

DalAST (Desulfofalx alkaliphila)
Km [2]: 34 ± 2 µM | kcat [2]: 0.705 ± 0.007 s⁻¹ | kcat/Km [2]: 21000 M⁻¹ s⁻¹
